Measurements reported in US20250084155A1.
One block for each binder: values may come before it.

Key:
[1] = target: HSP70-GFP (full-length HSP70 fused to GFP) (human) (UniProt P0DMV8); assay: cell-based or functional assay
[2] = target: HSP70 (human HSP70; the antigen of the binning, humanization and variant binding assays) (human) (UniProt P0DMV8); assay: BLI, anti-human Fc capture, antigen 100 nM
Sequence of HSP70 (human HSP70; the antigen of the binning, humanization and variant binding assays) (human) (P0DMV8 whole entry, change not shown): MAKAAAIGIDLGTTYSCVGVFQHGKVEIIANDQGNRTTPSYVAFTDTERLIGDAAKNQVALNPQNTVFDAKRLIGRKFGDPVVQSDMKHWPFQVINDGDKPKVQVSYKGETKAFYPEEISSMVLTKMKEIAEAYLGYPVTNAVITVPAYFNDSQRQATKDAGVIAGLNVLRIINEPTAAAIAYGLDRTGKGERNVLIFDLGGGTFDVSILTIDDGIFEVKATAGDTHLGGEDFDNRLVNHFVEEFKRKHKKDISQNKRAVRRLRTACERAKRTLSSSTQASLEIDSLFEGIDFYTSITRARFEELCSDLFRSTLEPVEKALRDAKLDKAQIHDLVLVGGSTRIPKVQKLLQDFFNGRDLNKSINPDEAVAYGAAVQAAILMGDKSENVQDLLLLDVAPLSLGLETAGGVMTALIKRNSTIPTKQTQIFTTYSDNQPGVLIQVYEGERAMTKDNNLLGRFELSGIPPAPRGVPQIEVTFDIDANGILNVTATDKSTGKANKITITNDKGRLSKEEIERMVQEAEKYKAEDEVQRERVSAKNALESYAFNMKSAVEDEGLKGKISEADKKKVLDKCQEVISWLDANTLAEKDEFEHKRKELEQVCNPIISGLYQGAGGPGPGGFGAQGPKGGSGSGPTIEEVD

Sequence of HSP70-GFP (full-length HSP70 fused to GFP) (human) (P0DMV8 whole entry, the tested form may be a part): as the sequence (P0DMV8 whole entry, change not shown) above

% live cells GFP positive, DC3.2 cells [1]: 78.3%
% live cells GFP positive, MH-S cells [1]: 66%
B1: murine 77A in a murine IgG2a format (antibody, V domains shown)
VH: QIQLVQSGPELKKPGETVKISCKASGYTFTNYGMNWVKQAPGKGLKWMGWINTYTGEPTYADDFKGRFAFSLETSATTAYLQINNLKNEDTATYFCARYDHAMDYWGQGTSVTVSS
VL: DIVMSQSPSSLAVSAGEKVTMSCKSSQSLLNSGTRKNYLAWYQQKPGQSPKLLIYWTSTRESGVPDRFTGSGSGTDFTLTINSVQAEDLAVYYCKQSYTLYTFGGGTKLEIK

% GFP positivity, DC3.2 cells [1]: 4.85%
% GFP positivity, MH-S cells [1]: 16%
B2: murine 77A in a murine IgG2b format (antibody, V domains shown)
VH: B1 VH
VL: B1 VL

% Diss [2]: -80.5%
X = 610 [2]: 0.0256 nM
X = 1495 [2]: 0.0462 nM
B3: h77A-1.32 (antibody, V domains shown)
VH: QIQLVQSGAEVKKPGASVKVSCKASGYTFTNYGMNWVRQAPGQGLEWMGWINTYTGEPRYADDFKGRFTFTTDTSTSTAYMELRSLRSDDTAVYFCARYDHDMDYWGQGTLVTVSS
VL: EIVLTQSPDSLAVSLGERATINCKSSQSLLNSGTRKNYLAWYQQKAGQSPKLLIYWTSTRESGVPDRFSGSGSGTDFTLTIDSLQAEDVAVYYCKQSYTLYTFGGGTKVEIK
